From patent US20200317768A1 (published 2020)

T1: cynomolgus monkey FcγRIIIaS extracellular domain, His-tagged (cynomolgus monkey, UniProt Q8SPW2 21-206 at identity 1.00))
T1 construct: also called cyno FcγRIIIaS; cynoFcγRIIIaS; not shown: C-terminal His-tag
T1 chain: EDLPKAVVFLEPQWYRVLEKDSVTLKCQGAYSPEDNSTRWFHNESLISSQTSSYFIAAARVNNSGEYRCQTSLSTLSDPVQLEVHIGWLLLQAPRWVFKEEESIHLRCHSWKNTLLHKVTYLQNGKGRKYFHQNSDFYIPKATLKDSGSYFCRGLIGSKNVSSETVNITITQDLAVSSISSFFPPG

T2: cynomolgus monkey FcγRIIa1 extracellular domain, His-tagged (cynomolgus monkey)
T2 construct: also called cyno FcγRIIa1; cynoFcgRIIa1; not shown: C-terminal His-tag
T2 chain: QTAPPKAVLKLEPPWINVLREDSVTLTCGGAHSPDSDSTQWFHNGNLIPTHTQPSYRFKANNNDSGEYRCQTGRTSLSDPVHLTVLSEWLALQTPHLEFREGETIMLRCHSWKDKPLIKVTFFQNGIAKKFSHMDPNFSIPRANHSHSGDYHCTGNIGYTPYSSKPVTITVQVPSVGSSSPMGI

T3: cynomolgus monkey FcγRIIa3 extracellular domain, His-tagged (cynomolgus monkey)
T3 construct: also called cyno FcγRIIa3; cynoFcgRIIa3; not shown: C-terminal His-tag
T3 chain: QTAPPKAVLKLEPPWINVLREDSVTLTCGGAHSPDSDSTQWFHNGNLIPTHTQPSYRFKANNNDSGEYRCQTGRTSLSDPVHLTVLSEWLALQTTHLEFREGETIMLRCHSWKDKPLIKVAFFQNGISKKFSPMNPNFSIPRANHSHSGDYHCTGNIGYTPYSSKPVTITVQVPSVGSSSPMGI

T4: human FcγRIIb extracellular domain, His-tagged (human, UniProt P31994 43-217)
T4 construct: also called FcgRIIb (human); not shown: C-terminal His-tag
T4 sequence: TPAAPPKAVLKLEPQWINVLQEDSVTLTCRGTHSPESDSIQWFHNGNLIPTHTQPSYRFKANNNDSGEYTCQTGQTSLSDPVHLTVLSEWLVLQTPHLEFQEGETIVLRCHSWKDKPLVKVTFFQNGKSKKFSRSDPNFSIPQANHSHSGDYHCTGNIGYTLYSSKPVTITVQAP

T5: human FcγRIIaH extracellular domain, His-tagged (human, UniProt P12318 34-217)
T5 construct: also called human FcγRIIa (type H); FcgRIIaH; not shown: C-terminal His-tag
T5 sequence: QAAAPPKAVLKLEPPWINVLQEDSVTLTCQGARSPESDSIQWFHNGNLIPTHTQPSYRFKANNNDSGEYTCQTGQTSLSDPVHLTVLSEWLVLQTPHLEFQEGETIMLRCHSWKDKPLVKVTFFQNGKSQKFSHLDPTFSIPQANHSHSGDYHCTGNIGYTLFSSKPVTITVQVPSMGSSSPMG

T6: cynomolgus monkey FcγRIIa2 extracellular domain, His-tagged (cynomolgus monkey)
T6 construct: also called cyno FcγRIIa2; cynoFcgRIIa2; not shown: C-terminal His-tag
T6 chain: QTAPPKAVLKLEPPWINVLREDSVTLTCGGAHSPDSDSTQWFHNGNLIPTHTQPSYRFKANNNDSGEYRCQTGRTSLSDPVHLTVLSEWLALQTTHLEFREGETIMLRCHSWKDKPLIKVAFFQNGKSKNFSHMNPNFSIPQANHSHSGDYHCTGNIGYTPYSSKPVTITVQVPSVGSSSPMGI


Key:
Test in all cases: SPR (BIACORE); KD of SG1 divided by KD of variant;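 also: relative to parent M103205H795-SG1 carrying the SG1 human heavy chain constant region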
[1] = molecular target: T1, cynomolgus monkey FcγRIIIaS …
Description: (§1) The kinetic analysis of interactions between these antibodies and FcγR was carried out using BIACORE® T200 or BIACORE® 4000 (GE Healthcare). HBS-EP+ (GE Healthcare) was used as the running buffer, and the measurement temperature was set to 25° C. A chip produced by immobilizing Protein A. Protein A/G or mouse anti-human IgG kappa light chain (BD Biosciences) onto a Series S Sensor Chip CM4 or CM5 (GE Healthcare) by the amine-coupling method was used. […] After the measurement, the antibody captured on the chip was washed off by allowing reaction with 10 mM glycine-HCl, pH1.5 and 25 mM NaOH so that the chip was regenerated and used repeatedly. The sensorgrams obtained as measurement results were analyzed by the 1:1 Langmuir binding model using the BIACORE® Evaluation Software to calculate the binding rate constant ka (L/mol/s) and dissociation rate constant kd (l/s), and the dissociation constant KD (mol/L) was calculated from these values. […] Regarding such interactions, KD values were calculated using the following 1:1 binding model described in BIACORE® T100 Software Handbook BR1006-48 Edition AE.

[2] = molecular target: T7, human FcγRIIIaV extracellular domain, His-tagged (human, UniProt P08637 17-208)
T7 construct: also called FcgRIIIaV; not shown: C-terminal His-tag
T7 sequence (P08637 17-208 F176V): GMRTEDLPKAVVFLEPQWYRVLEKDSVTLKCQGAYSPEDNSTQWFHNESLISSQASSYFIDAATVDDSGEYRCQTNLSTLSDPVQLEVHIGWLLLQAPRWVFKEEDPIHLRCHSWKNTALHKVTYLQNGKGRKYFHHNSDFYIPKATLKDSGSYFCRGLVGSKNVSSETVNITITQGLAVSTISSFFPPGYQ
Description: as §1

[3] = molecular target: T2, cynomolgus monkey FcγRIIa1 …
Description: as §1

[4] = molecular target: T3, cynomolgus monkey FcγRIIa3 …
Description: as §1

[5] = molecular target: T4, human FcγRIIb extracellular domain, …
Description: as §1

[6] = molecular target: T5, human FcγRIIaH extracellular domain, …
Description: as §1

[7] = molecular target: T6, cynomolgus monkey FcγRIIa2 …
Description: as §1

KD fold (SG1 = 1) [1]	KD fold (SG1 = 1) [2]	KD fold (SG1 = 1) [3]	KD fold (SG1 = 1) [4]	KD fold (SG1 = 1) [5]	KD fold (SG1 = 1) [6]	KD fold (SG1 = 1) [7]	Binder
0.2 fold	0.2 fold	1.2 fold	3.8 fold	1.8 fold	3 fold	2.4 fold	M103205H795-MY471/M103202L889-SK1 (antibody, human IgG1, kappa, copies: 2 + 2) heavy: QVTLKESGPVLVKPTETLTLTCTVSGIDLSHDDISWVRQAPGKGLEWVGIISYAGSTYYASWAKGRLTISKDTSKNQVVLTMTNMDPVDTATYYCARGVPAYSHGGDLWGQGTLVTVSSASTKGPSVFPLAPSSKSTSGGTAALGCLVKDYFPEPVTVSWNSGALTSGVHTFPAVLQSSGLYSLSSVVTVPSSSLGTQTYICNVNHKPSNTKVDKKVEPKSCDKTHTCPPCPRPELLTGPSVFLFPPKPKDTLMISRTPEVTCVVVDVSDEDPEVKFNWYVDGVEVHNAKTKPREEQYNSTYRVVSVLTVLHQDWLNGKEYKCKVSNKALPKPIEKTISKAKGQPREPQVYTLPPSREEMTKNQVSLTCLVKGFYPSDIAVEWESNGQPENNYKTTPPVLDSDGSFFLYSKLTVDKSRWQQGNVFSCSVMHEALHNHYTQKSLSLSP light: DIVMTQSPATLSLSPGERATLSCTSSQSVYHANWLSWFQQKPGQPPKLLIYWASTLAYGVPSRFSGSGSGTDFTLTISSLQPEDAATYYCAGGYGGGRYAFGQGTKVEIKRTVAAPSVFIFPPSDEQLKSGTASVVCLLNNFYPREAKVQWKVDNALQSGNSQESVTEQDSKDSTYSLSSTLTLSKADYEKHKVYACEVTHQGLSSPVTKSFNRGEC
0.2 fold	0.1 fold	1.5 fold	3.3 fold	1.8 fold	3.8 fold	2.4 fold	M103205H795-MY472/M103202L889-SK1 (antibody, human IgG1, kappa, copies: 2 + 2) heavy: QVTLKESGPVLVKPTETLTLTCTVSGIDLSHDDISWVRQAPGKGLEWVGIISYAGSTYYASWAKGRLTISKDTSKNQVVLTMTNMDPVDTATYYCARGVPAYSHGGDLWGQGTLVTVSSASTKGPSVFPLAPSSKSTSGGTAALGCLVKDYFPEPVTVSWNSGALTSGVHTFPAVLQSSGLYSLSSVVTVPSSSLGTQTYICNVNHKPSNTKVDKKVEPKSCDKTHTCPPCPSPELLTGPSVFLFPPKPKDTLMISRTPEVTCVVVDVSDEDPEVKFNWYVDGVEVHNAKTKPREEQYNSTYRVVSVLTVLHQDWLNGKEYKCKVSNKALPKPIEKTISKAKGQPREPQVYTLPPSREEMTKNQVSLTCLVKGFYPSDIAVEWESNGQPENNYKTTPPVLDSDGSFFLYSKLTVDKSRWQQGNVFSCSVMHEALHNHYTQKSLSLSP light: DIVMTQSPATLSLSPGERATLSCTSSQSVYHANWLSWFQQKPGQPPKLLIYWASTLAYGVPSRFSGSGSGTDFTLTISSLQPEDAATYYCAGGYGGGRYAFGQGTKVEIKRTVAAPSVFIFPPSDEQLKSGTASVVCLLNNFYPREAKVQWKVDNALQSGNSQESVTEQDSKDSTYSLSSTLTLSKADYEKHKVYACEVTHQGLSSPVTKSFNRGEC
